From the supplement of paper PMC10126150
± gives the standard deviation of the averaged measurements.

System: ATP
Experiment: switch fluorescence ratio, 500 uM ATP over buffer (Cy3 cluster intensity, sum of 5 cycles each) (fold (ratio)); higher = stronger signal-on switching upon ATP binding; sequences stand for … in TCGTCGGCAGCGTCAGATGTGTATAAGAGACAGTTTTTTTTTTTTTTTTTTTTTTTTT…TC
Conditions: aptamer strand: ATP DNA aptamer (quencher-CACCTGGGGGAGTATTGCGGAGGAAGG + anchor), 100 nM annealed; ATP concentration: 500 uM
Procedure, shortened: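 Switching-strand clusters labelled with Cy3 on a modified Illumina MiSeq flow-cell were annealed to 100 nM quencher-labelled ATP aptamer, imaged in selection buffer, and re-imaged after 15 min with 500 uM ATP at 22 °C. This was done over five cycles with NaOH stripping and re-annealing in between. The fluorescence ratio is summed target-cycle over summed buffer-cycle Cy3 intensity per cluster, averaged per switch-domain sequence, excluding clusters outside 100-1000 RFU.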
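Also: ATP exposure 15 min at 22 °C before imaging.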

Sequence | switch fluorescence ratio
GAGGGCTTGG | 1.05 ± 0.016
GAGGGGAACC | 0.992 ± 0.032
GAGGGGAGCG | 0.969 ± 0.043
GAGGGGATAG | 1.03 ± 0.046
GAGGGGATGT | 0.978 ± 0.026
GAGGGGCCGA | 0.973 ± 0.016
GAGGGGCGCG | 0.997 ± 0.065
GAGGGGCTTT | 0.982 ± 0.018
GAGGGGGCAC | 1.03 ± 0.042
GAGGGGGCGC | 1.02 ± 0.031
GAGGGGGCGG | 0.999 ± 0.025
GAGGGGGCGT | 1.01 ± 0.04
GAGGGGGCTA | 1.02 ± 0.029
GAGGGGGGAC | 1.02 ± 0.032
GAGGGGGGCA | 0.977 ± 0.03
GAGGGGGGGC | 1.01 ± 0.07
GAGGGGTCCA | 0.974 ± 0.021
GAGGGGTGCG | 1.01 ± 0.025
GAGGGGTTGG | 0.964 ± 0.033
GAGGGGTTGT | 1.03 ± 0.013
GAGGGTACGG | 1.037 ± 0.0092
GAGGGTATCG | 0.984 ± 0.039
GAGGGTCAAA | 1.004 ± 0.01
GAGGGTCATC | 0.935 ± 0.056
GAGGGTGAGT | 0.9809 ± 0.0054

Sequence | switch fluorescence ratio
GAGGGTGCGG | 1.01 ± 0.027
GAGGGTGGGC | 1.03 ± 0.09
GAGGGTGTAG | 0.988 ± 0.018
GAGGGTGTGG | 1.02 ± 0.022
GAGGGTTAGT | 0.9866 ± 0.0066
GAGGGTTGGC | 0.95 ± 0.084
GAGGGTTTGG | 0.989 ± 0.037
GAGGGTTTGT | 0.973 ± 0.039
GAGGTACCGC | 1.05 ± 0.029
GAGGTAGCGC | 0.98 ± 0.01
GAGGTATGGA | 0.9842 ± 0.0019
GAGGTATGTT | 0.999 ± 0.02
GAGGTCAAGG | 0.987 ± 0.033
GAGGTCATTC | 0.999 ± 0.029
GAGGTCGTAA | 1.05 ± 0.051
GAGGTGGCAG | 1.0097 ± 0.00096
GAGGTGTGGG | 0.981 ± 0.016
GAGGTGTTGC | 0.985 ± 0.035
GAGGTTAATA | 1.04 ± 0.021
GAGGTTATTA | 1 ± 0.066
GAGGTTGCTG | 0.987 ± 0.026
GAGGTTGTAC | 1.02 ± 0.012
GAGGTTTCAT | 0.997 ± 0.016
GAGTAAAACA | 1.16 ± 0.27
GAGTAAAGTT | 0.982 ± 0.02

Sequence | switch fluorescence ratio
GAGTAAGAGC | 1.017 ± 0.0075
GAGTAAGCGG | 1.01 ± 0.048
GAGTAAGGAC | 1.09 ± 0.061
GAGTAAGGTA | 1.02 ± 0.024
GAGTAAGTGG | 0.99 ± 0.039
GAGTAATCGG | 1.01 ± 0.049
GAGTACCCGG | 1 ± 0.018
GAGTAGAAGA | 1.01 ± 0.035
GAGTAGACGT | 0.998 ± 0.049
GAGTAGGGGT | 1.01 ± 0.022
GAGTATCTGC | 1.01 ± 0.079
GAGTATGCAT | 0.984 ± 0.023
GAGTATTCGG | 0.998 ± 0.031
GAGTATTGGG | 0.9897 ± 0.0087
GAGTATTGGT | 0.9817 ± 0.0094
GAGTATTTAA | 0.964 ± 0.058
GAGTCAAGGG | 0.998 ± 0.021
GAGTCAGGTA | 1.01 ± 0.029
GAGTCAGTGG | 0.984 ± 0.012
GAGTCCGCCT | 1.6 ± 0.093
GAGTCGAGGG | 0.961 ± 0.017
GAGTCGAGTG | 1.01 ± 0.048
GAGTCGGTGT | 1.026 ± 0.0063
GAGTCTAGCG | 1.02 ± 0.064
GAGTCTATTG | 1.023 ± 0.0022

Sequence | switch fluorescence ratio
GAGTCTGGGG | 0.978 ± 0.049
GAGTGAGCTT | 0.966 ± 0.046
GAGTGAGTAG | 0.9794 ± 0.0059
GAGTGCGGGA | 1.02 ± 0.044
GAGTGCTCGA | 1.01 ± 0.074
GAGTGGACGG | 0.998 ± 0.018
GAGTGGCACC | 1.04 ± 0.042
GAGTGGCTGG | 0.979 ± 0.014
GAGTGGGCTC | 0.9879 ± 0.0045
GAGTGGGGGA | 0.99 ± 0.023
GAGTGGGTGG | 0.99 ± 0.037
GAGTGGTACC | 1.01 ± 0.025
GAGTGGTGTG | 0.979 ± 0.035
GAGTGTGTGT | 1.006 ± 0.0053
GAGTGTTCAG | 0.997 ± 0.018
GAGTGTTGGG | 1.004 ± 0.0052
GAGTTAAGAC | 0.991 ± 0.049
GAGTTCCTGT | 1.01 ± 0.014
GAGTTGGGAG | 1.01 ± 0.032
GAGTTGGTAG | 0.969 ± 0.021
GAGTTGGTCT | 1 ± 0.027
GAGTTTAATT | 0.999 ± 0.038
GAGTTTAGGT | 1.02 ± 0.011
GAGTTTGAGT | 0.982 ± 0.035
GAGTTTGGGT | 0.985 ± 0.032

Sequence | switch fluorescence ratio
GAGTTTTCTA | 0.9987 ± 0.0081
GAGTTTTTTG | 1.03 ± 0.039
GATAAAAGCG | 0.994 ± 0.0015
GATAAATAAA | 1 ± 0.02
GATAAATGGG | 0.994 ± 0.024
GATAAATGTT | 0.985 ± 0.01
GATAAGATGG | 0.979 ± 0.034
GATAAGGAAG | 1.02 ± 0.011
GATACAGCTA | 1.03 ± 0.042
GATACAGTAA | 1.06 ± 0.017
GATACATGGG | 0.985 ± 0.038
GATACCGGGT | 1.01 ± 0.022
GATACCTTTG | 1.72 ± 1
GATACGGACA | 1.42 ± 0.019
GATACGTGGG | 0.9702 ± 0.0065
GATACTTTTT | 1.01 ± 0.029
GATAGAAGTA | 0.9733 ± 0.0057
GATAGACTTT | 1.02 ± 0.048
GATAGATGTT | 0.979 ± 0.02
GATAGGGCAT | 1.02 ± 0.012
GATAGGGGAA | 0.978 ± 0.022
GATAGGGGAC | 1.03 ± 0.039
GATAGGGGTT | 0.975 ± 0.022
GATAGGTG | 1.21 ± 0.1
GATAGTAAGT | 0.998 ± 0.077

Sequence | switch fluorescence ratio
GATAGTGATA | 1.01 ± 0.019
GATAGTTTGT | 1 ± 0.011
GATATAGGCG | 1.05 ± 0.047
GATATAGTGT | 0.991 ± 0.02
GATATATATG | 1.01 ± 0.015
GATATATGCT | 1 ± 0.013
GATATATTAT | 1.017 ± 0.0038
GATATATTTT | 0.976 ± 0.01
GATATCAGGG | 0.978 ± 0.037
GATATCCATG | 0.972 ± 0.014
GATATGGGGG | 1.01 ± 0.03
GATATTAGAT | 1.02 ± 0.046
GATATTATTT | 0.998 ± 0.024
GATATTGCGA | 1.02 ± 0.035
GATATTGTTA | 1 ± 0.029
GATATTTCGG | 1.011 ± 0.0024
GATATTTTAA | 0.992 ± 0.037
GATCAGTGGC | 1.05 ± 0.071
GATCATGCCT | 1.048 ± 0.008
GATCATTTGT | 0.9797 ± 0.0018
GATCCACGGT | 1.03 ± 0.027
GATCGACTGG | 1.029 ± 0.0075
GATCGAGGGG | 1.05 ± 0.1
GATCGCAGCG | 0.986 ± 0.032
GATCGCGTAT | 1.02 ± 0.0026

Sequence | switch fluorescence ratio
GATCGGGGAC | 1.03 ± 0.027
GATCGGGGGA | 1.02 ± 0.015
GATCGGTAAT | 1.04 ± 0.028
GATCTCAGGG | 1 ± 0.034
GATCTGCTTC | 1.02 ± 0.026
GATCTTCGGC | 0.9541 ± 0.0027
GATCTTTGTT | 1.009 ± 0.0093
GATCTTTTCG | 1.01 ± 0.037
GATGAAAAGT | 0.976 ± 0.015
GATGAAAGAT | 1.003 ± 0.0085
GATGAAGACT | 1 ± 0.067
GATGACCTTT | 1.07 ± 0.14
GATGACTTTT | 1 ± 0.023
GATGAGGTTC | 0.967 ± 0.053
GATGATGAGG | 0.9961 ± 0.0073
GATGATGGCG | 1.05 ± 0.073
GATGATGTTT | 0.973 ± 0.039
GATGATTCTG | 1.001 ± 0.0056
GATGCAGGGC | 1.12 ± 0.081
GATGCATGTT | 0.9947 ± 0.0021
GATGCCGGCA | 0.98 ± 0.065
GATGCGCCGG | 1.03 ± 0.034
GATGCGGGGA | 1.01 ± 0.018
GATGCGTACG | 1 ± 0.055
GATGCTATTT | 1.004 ± 0.0087

Sequence | switch fluorescence ratio
GATGGAACAC | 0.994 ± 0.017
GATGGAGGAG | 1.03 ± 0.027
GATGGAGGAT | 1.01 ± 0.021
GATGGAGGGA | 1.01 ± 0.028
GATGGAGGTT | 0.996 ± 0.055
GATGGATGAA | 1.016 ± 0.0033
GATGGGAGGT | 1.008 ± 0.0046
GATGGGATGG | 0.993 ± 0.039
GATGGGCCGG | 1 ± 0.039
GATGGGGAGT | 0.9715 ± 0.0057
GATGGGGGCA | 1 ± 0.086
GATGGGGGGT | 1 ± 0.022
GATGGGGGTG | 1.02 ± 0.053
GATGGGGTTC | 1.01 ± 0.018
GATGGGTATA | 1.0016 ± 0.00067
GATGGGTATG | 0.995 ± 0.01
GATGGGTG | 1.03 ± 0.082
GATGGTTAGA | 0.998 ± 0.036
GATGGTTGAA | 0.984 ± 0.021
GATGTAAAGC | 1.02 ± 0.06
GATGTAAAGG | 0.9891 ± 0.006
GATGTAACAA | 0.998 ± 0.035
GATGTAATGT | 1.0081 ± 0.00064
GATGTACAGA | 1.13 ± 0.019
GATGTAGGTA | 0.983 ± 0.038
